According to patent US20070203054A1 (YISSUM RESEARCH DEVELOPMENT COMPANY OF THE HEBREW …, published 2007):

What was measured:
[1] = molecular target: HA of influenza virus Yamanashi (B strain) on infected cells (influenza B virus Yamanashi)
[2] = molecular target: HA of influenza virus New Caledonia (H1N1) on infected cells (influenza A virus New Caledonia (H1N1))
[3] = molecular target: HA of influenza A/Sydney (A/Sydney/5/97-like (H3N2)) on infected cells (influenza A virus A/Sydney/5/97-like (H3N2))
[4] = molecular target: HA of influenza A/Moscow (A/Moscow/10/99-like (H3N2)) on infected cells (influenza A virus A/Moscow/10/99-like (H3N2))
[5] = molecular target: HA of influenza A/Beijing (A/Beijing/262/95-like (H1N1)) on infected cells (influenza A virus A/Beijing/262/95-like (H1N1))
[6] = molecular target: hemagglutinin-neuraminidase of Sendai virus (SV) on infected cells (Sendai virus)

Chain of NKp46-Ig fusion protein (O76036 22-254 Q82K): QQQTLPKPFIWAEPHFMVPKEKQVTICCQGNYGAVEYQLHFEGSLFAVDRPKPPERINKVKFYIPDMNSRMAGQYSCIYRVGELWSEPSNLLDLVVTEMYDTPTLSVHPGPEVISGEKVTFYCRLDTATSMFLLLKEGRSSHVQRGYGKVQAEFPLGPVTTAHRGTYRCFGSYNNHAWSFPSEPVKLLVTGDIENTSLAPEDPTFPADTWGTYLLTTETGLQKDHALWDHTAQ
Chain of NKp44-Ig fusion protein (O95944 22-190 M75V limits assumed): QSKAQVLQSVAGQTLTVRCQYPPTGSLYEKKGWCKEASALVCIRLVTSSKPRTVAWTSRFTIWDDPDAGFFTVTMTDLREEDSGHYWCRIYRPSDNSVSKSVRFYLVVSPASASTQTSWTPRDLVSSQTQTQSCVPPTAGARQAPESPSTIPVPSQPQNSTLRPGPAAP
Chain of NKp46D1-Ig fusion protein (membrane distal domain of NKp46 fused to Fc of human IgG1) (O76036 22-120 Q82K): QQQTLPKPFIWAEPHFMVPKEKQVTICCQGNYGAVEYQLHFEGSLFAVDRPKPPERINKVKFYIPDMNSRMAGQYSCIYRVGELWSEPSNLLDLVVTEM

Molecule | MFI [1] | MFI [2] | MFI [3] | MFI [4] | MFI [5] | MFI [6]
NKp46D2-Ig fusion protein produced in COS cells (membrane proximal domain of NKp46 fused to Fc of human IgG1) (from UniProt O76036 121-254) (Fc fusion) | 51 | 420 | 100 | 50 | 77 | 95
NKp46-Ig fusion protein (from UniProt O76036 22-254) (Fc fusion) | – | 315 | 58 | 20 | 44 | –
NKp46D1-Ig fusion protein (membrane distal domain of NKp46 fused to Fc of human IgG1) (from UniProt O76036 22-120) (Fc fusion) | 8 | 5 | 10 | 8 | 7 | 8
NKp44-Ig fusion protein (from UniProt O95944 22-190) (Fc fusion) | 117 | 518 | 120 | 24 | 128 | 350
NKp30-Ig fusion protein (from UniProt O14931 19-135) (Fc fusion) | – | 10 | 8 | 8 | 4 | –
CD99-Ig fusion protein (Fc fusion) DGGFDLSDALPDNENKKPTAIPKKPSAGDDFDLGDAVVDGENDDPRPPNPPKPMPNPNPNHPSSSGSFSDADLADGVSGGEGKGGSDGGGSHRKEGEEAD | 0 | 0 | 1 | 0 | 0 | 0.5
